*1 amine or outer side, *2 acyl side, *3 side chain or, on linkers, in order; H or OH if unused. Where a SMILES comes first, the peptide text is derived from it. Bridges are numbered along the chain shown (N, C = ends). Side-chain parts run from the residue outwards. [ ]: non-standard residue; d: D form. The star is where a group is joined. X1 = O=C([C@@H](Cc1ccccc1)N(c1c(NCCCCCN(O)[*:3])c(=O)c1=O)[*:1])[*:2]; X2 = CC(=O)N(O)CCCCCNC(=O)CCC(=O)N(O)CCCCCN*; Suc = O=C(CCC(=O)[*:2])[*:1]
Assays:
Parameters in all cases: species or system mice
in vivo [1] = settings: male, mouse, total radioactivity; for tissue uptake at 1 h: Tumour Uptake % ID/g 1 h pi; for tissue uptake at 18 h: Tumour Uptake % ID/g 18 h pi
Protocol: (§1) PET-CT imaging and Biodistribution. Male Balb/c nude mice (age 8.5 weeks) or Male NSG mice (age 12 weeks) were inoculated subcutaneously on the right flank with 6×10^6 LNCap cells in PBS:Matrigel (1:1). Mice were weighed and tumours measured twice weekly using electronic callipers. Tumour volume (mm^3) was calculated as length×width×height×π/6. Mice were assigned for imaging and biodistribution studies (tumour volumes: 85-450 mm3). ^89Zr-DFOSq-PSMA tracers were then administered intravenously by tail vein injection to 6 mice. At 1, 2, 4 and 18 hr post injection three mice were anaesthetised using isoflurane and placed on the imaging bed of a G8 PET/CT scanner (Perkin Elmer). A CT scan was performed and followed immediately by a 10 min static PET scan. PET images were reconstructed using the maximal likelihood and expectation maximization (ML-EM) algorithm. PET Images were analysed using VivoQuant (Invicro) and Tumour SUVmax or Tumour SUVmax/background average (TBR) determined. After imaging at 18 hr mice were euthanised and selected tissues were excised, weighed and counted using a Capintec (Captus 4000e) gamma counter. A separate cohort of 3 mice was harvested at 1 hr post injection for biodistribution analysis as above. The data was analysed using GraphPad Prism 7 and differences between tracers analysed using a t-test.
(§2) ^89Zr Labelled tracers: The ^89Zr radiolabelled PSMA tracers were injected intravenously via tail vein to LNCaP (human PSMA expressing prostate cancer cell line) tumour bearing mice. At 1, 2, 4 and 18 h post-injection the mice were anaesthetised with isoflurane and imaged over 10 min. The representative PET images of mice injected with ^89Zr radiolabelled PSMA tracers at 1 and 18 hr are shown in FIG. 1 and quantitation of the Tumour SUVmax for each tracer is shown in FIG. 2a. […] There was a trend for higher tumour SUVmax for (4) tracer compared to all other tracers at all time points. […] A comparison of tumour uptake values is shown in FIG. 2b and the tissue biodistribution data for the tracers at 1 and 18 hr is summarised in FIG. 3.
(§3) ^68Ga Labelled tracers: Representative PET images of mice injected with ^68Ga(1) and ^68Ga(4) are shown in FIG. 4 and quantitation of the tumour SUVmax is shown in FIG. 5a. […] Tumour uptake of ^68Ga(4) was 1.6 and 1.8 fold higher than ^68Ga(1) at 1 and 2 hr p.i., respectively. This is consistent with the biodistribution results where tumour % ID/g for ^68Ga(4) was higher than ^68Ga(1) at 1 hr (10.8±1.3 vs 6.5±0.4) and at 2.5 hr (8.6±1.0 vs 4.1±0.5) p.i. […] (6.5±0.4% ID/g at 1 hr vs 4.1±0.5% ID/g at 2.5 hr). In contrast, there was no significant change in ^68Ga(4) tumour retention at 1 and 2.5 p.i. (10.8±1.3% ID/g vs […], FIG. 5b).

[2] = system: LNCaP (human PSMA expressing prostate cancer cell line) tumour; settings: mouse, in vivo
Protocol: as §1, §2, §3

[3] = system: LNCaP (human PSMA expressing prostate cancer cell line) tumour; assay: in vivo; settings: mouse
Protocol: as §1, §2, §3

[4] = system: AR42J (rat pancreatic cancer cell line) tumour; assay: in vivo; settings: mouse
Protocol: (§4) PET-CT imaging and Biodistribution of Octreotate/tide Tracers. Female Balb/c nude mice (age 9 weeks) were inoculated subcutaneously on the right flank with 3×10^6 AR42J cells in PBS:Matrigel (1:1). Mice were weighed and tumours measured twice weekly using electronic callipers. Tumour volume (mm^3) was calculated as length^2×width/2. 12 mice were assigned for imaging and biodistribution studies (tumour volumes: 170-550 mm^3). DFOSqTIDE (2.5 MBq) and DFOSqTATE (2.2 MBq) were administered intravenously by tail vein injection to mice on. At 1, 2, 4 and 18 hr post injection three mice were anaesthetised using isoflurane and placed on the imaging bed of a G8 PET/CT scanner (Perkin Elmer). A CT scan was performed which was immediately followed by a 10 min static PET scan. PET images were reconstructed using the maximal likelihood and expectation maximization (ML-EM) algorithm. PET images were analysed using VivoQuant (Invicro) and Tumour SUVmax, Tumour SUVmax/background average (TBR) and Tumour SUVmax/liver average (TLR) determined. After imaging at 18 hr mice were euthanised and selected tissues were excised, weighed and counted using a Capintec (Captus 4000e) gamma counter. A separate cohort of 3 mice was harvested at 1 hr post injection for biodistribution analysis. The data was analysed using GraphPad Prism 7 and differences between tracers analysed using a t-test.
AR42J (rat pancreatic cancer cell line) tumour bearing Balb/c nude mice as described above were injected intravenously via tail vein injection with ^89ZrDFOSqTATE or ^89ZrDFOSqTIDE (2-3 MBq). At 1, 2, 4 and 18 h post-injection the mice were anaesthetised with isoflurane and imaged over 10 min. At 1 hr after injection of DFOSqTIDE and DFOSqTATE, uptake into kidney, tumour and liver was observed. Representative PET images of mice injected with DFOSqTIDE and DFOSqTATE are shown in FIG. 12 and quantitation of the tumour SUVmax for each radiotracer is summarised in FIG. 13a.
^68GaDFOSq-TIDE and ^68GaDFOSq-TATE tracers were injected (2-3 MBq, 1 μg, 0.5 nmol) intravenously via tail vein to AR42J (rat pancreatic cancer cell line) tumour bearing Balb/c nude mice. PET images were acquired at 1 and 2 h post-injection (FIGS. 15a and b). […] Quantification of the uptake in the images using Standard Uptake Value (SUVmax=radioactivity in a tissue/injected activity/BW) confirms the higher uptake for ^68GaDFOSq-TATE (1 h; SUVmax 1.8±0.2, compared to 1.21±0.20, FIG. 15c). The higher tumor uptake of ^68GaDFOSqTATE was also associated with a higher degree of tumor retention at 2 h post injection with only a 5% reduction in SUVmax whereas the tumor SUVmax for ^68GaDFOSqTIDE reduced by 30% ^68GaDFOSqTATE at 2 h post injection. Both tracers clear rapidly from the blood and there is low uptake in bone consistent with stable gallium-68 complexes as well as low uptake in muscle. Both tracers have significant uptake in the kidneys and bladder.

in vivo [5] = settings: female, Balb/c nude, mouse, iv, total radioactivity
Protocol: as §4, with “t-test. The high tumor uptake was confirmed by an ex vivo biodistribution study in the same mouse model where mice were injected with either ^68GaDFOSq-TIDE and ^68GaDFOSq-TATE (2-3 MBq, 1 μg, 0.5 nmol) and then euthanised at either 1 h or 2 h after administration. The amount of injected activity per gram of tissue (% IA/g) in the tumor and major organs was quantified (FIG. 16).” for “t-test.”

CC(=O)N(O)CCCCCNC(=O)CCC(=O)N(O)CCCCCNC(=O)CCC(=O)N(O)CCCCCNc1c(NCCN(CCNC(=O)CCCC(=O)NCCCCC(NC(=O)NC(CCC(=O)O)C(=O)O)C(=O)O)CCNC(=O)CCCC(=O)NCCCCC(NC(=O)NC(CCC(=O)O)C(=O)O)C(=O)O)c(=O)c1=O (single isomer, unassigned) [(3), DFOSq-bisPSMA ligand]
tissue uptake at 1 h (in vivo [1]; iv): 5.9 %ID/g
tissue uptake at 18 h (in vivo [1]; iv): 2.5 %ID/g

CC(=O)N(O)CCCCCNC(=O)CCC(=O)N(O)CCCCCNC(=O)CCC(=O)N(O)CCCCCNc1c(NCc2ccc(C(=O)NCCCCC(NC(=O)NC(CCC(=O)O)C(=O)O)C(=O)O)cc2)c(=O)c1=O (single isomer, unassigned) [^68Ga(1), metal not drawn]
Gall bladder uptake in PET images [2]: high uptake
Gut uptake in PET images [2]: high uptake
Kidney uptake in PET images [2]: high uptake
LNCap tumour uptake in PET images [2]: moderate uptake
Tumour SUVmax 1 h pi [2]: 1.0 ± 0.02
Tumour SUVmax 2 h pi [2]: 0.8 ± 0.05
tissue uptake at 1 h (in vivo [1]): 6.5 ± 0.38 %ID/g
tissue uptake at 2.5 h (in vivo [1]; Tumour Uptake % ID/g 2.5 h pi): 4.1 ± 0.51 %ID/g
Tumour Uptake % ID/g 1 h pi [3]: 6.5±0.4 % ID/g
Tumour Uptake % ID/g 2.5 h pi [3]: 4.1±0.5 % ID/g

CC(=O)N(O)CCCCCNC(=O)CCC(=O)N(O)CCCCCNC(=O)CCC(=O)N(O)CCCCCNc1c(NCc2ccc(C(=O)NCCCCC(NC(=O)NC(CCC(=O)O)C(=O)O)C(=O)O)cc2)c(=O)c1=O (single isomer, unassigned) [^89Zr(1), metal not drawn]
Tumour SUVmax 1 h pi [2]: 1.1 ± 0.12
Tumour SUVmax 18 h pi [2]: 0.4 ± 0.05
Tumour SUVmax Clearance % [2]: 63%
tissue uptake at 1 h (in vivo [1]; iv): 4.6 ± 0.45 %ID/g
tissue uptake at 18 h (in vivo [1]; iv): 1.7 ± 0.18 %ID/g

CC(=O)N(O)CCCCCNC(=O)CCC(=O)N(O)CCCCCNC(=O)CCC(=O)N(O)CCCCCNc1c(NCCN(CCNC(=O)CCCC(=O)NCc2ccc(C(=O)NCCCCC(NC(=O)NC(CCC(=O)O)C(=O)O)C(=O)O)cc2)CCNC(=O)CCCC(=O)NCc2ccc(C(=O)NCCCCC(NC(=O)NC(CCC(=O)O)C(=O)O)C(=O)O)cc2)c(=O)c1=O (single isomer, unassigned) [^89Zr(4), metal not drawn]
Tumour SUVmax 1 h pi [2]: 3.2 ± 0.30
Tumour SUVmax 18 h pi [2]: 1.5 ± 0.18
Tumour SUVmax Clearance % [2]: 54%
tissue uptake at 1 h (in vivo [1]; iv): 9.3 ± 0.33 %ID/g
tissue uptake at 18 h (in vivo [1]; iv): 3.7 ± 1.07 %ID/g

CC(=O)N(O)CCCCCNC(=O)CCC(=O)N(O)CCCCCNC(=O)CCC(=O)N(O)CCCCCNc1c(NCCNC(=O)CN(CCN(CC(=O)O)CC(=O)Nc2ccc(C(=O)NCCCCC(NC(=O)NC(CCC(=O)O)C(=O)O)C(=O)O)cc2)CC(=O)O)c(=O)c1=O (stereo not shown) [(2), DFOSq-EDTA-PSMA ligand]
tissue uptake at 1 h (in vivo [1]; iv): 3.2 %ID/g
tissue uptake at 18 h (in vivo [1]; iv): 1 %ID/g

CC(=O)N(O)CCCCCNC(=O)CCC(=O)N(O)CCCCCNC(=O)CCC(=O)N(O)CCCCCNc1c(NCCN(CCNC(=O)CCCC(=O)NCc2ccc(C(=O)NCCCCC(NC(=O)NC(CCC(=O)O)C(=O)O)C(=O)O)cc2)CCNC(=O)CCCC(=O)NCc2ccc(C(=O)NCCCCC(NC(=O)NC(CCC(=O)O)C(=O)O)C(=O)O)cc2)c(=O)c1=O (stereo not shown) [(4), DFOSq-bisPhPSMA ligand]
tissue uptake at 1 h (in vivo [1]; iv): 9.3 %ID/g
tissue uptake at 18 h (in vivo [1]; iv): 3.7 %ID/g

CC(=O)N(O)CCCCCNC(=O)CCC(=O)N(O)CCCCCNC(=O)CCC(=O)N(O)CCCCCNc1c(N[C@H](Cc2ccccc2)C(=O)N[C@H]2CSSC[C@@H](C(=O)N[C@H](C(=O)O)[C@@H](C)O)NC(=O)[C@H]([C@@H](C)O)NC(=O)[C@H](CCCCN)NC(=O)[C@@H](Cc3c[nH]c4ccccc34)NC(=O)[C@H](Cc3ccc(O)cc3)NC2=O)c(=O)c1=O [DFOSqTATE] (H-[X1]([Suc-X2])CY[dW]KTCT-OH; disulfide 2-7)
Tumour SUVmax Clearance % [4]: 58%
tissue uptake at 1 h (in vivo [5]; Tumour Uptake % ID/g 1 h pi): 10.4 ± 0.5 %ID/g
tissue uptake at 18 h (in vivo [5]; Tumour Uptake % ID/g 18 h pi): 4.9 ± 0.8 %ID/g

CC(=O)N(O)CCCCCNC(=O)CCC(=O)N(O)CCCCCNC(=O)CCC(=O)N(O)CCCCCNc1c(NCCNC(=O)CN(CCN(CC(=O)O)CC(=O)Nc2ccc(C(=O)NCCCCC(NC(=O)NC(CCC(=O)O)C(=O)O)C(=O)O)cc2)CC(=O)O)c(=O)c1=O (stereo not shown) [^89Zr(2), metal not drawn]
Tumour SUVmax 1 h pi [2]: 0.7 ± 0.03
Tumour SUVmax 18 h pi [2]: 0.3 ± 0.01
Tumour SUVmax Clearance % [2]: 57%
Tumour Uptake % ID/g 1 h pi ([3]; male, iv, 1 h): 3.2 ± 0.72 % ID/g
Tumour Uptake % ID/g 18 h pi ([3]; male, iv, 18 h): 0.9 ± 0.09 % ID/g
